The target of this assay is His fused LCK (His-LCK) (human, UniProt P06239 1-509). As to the kind of experiment: pull-down.
Sequence of His fused LCK (His-LCK) (P06239 whole entry, the tested form may be a part): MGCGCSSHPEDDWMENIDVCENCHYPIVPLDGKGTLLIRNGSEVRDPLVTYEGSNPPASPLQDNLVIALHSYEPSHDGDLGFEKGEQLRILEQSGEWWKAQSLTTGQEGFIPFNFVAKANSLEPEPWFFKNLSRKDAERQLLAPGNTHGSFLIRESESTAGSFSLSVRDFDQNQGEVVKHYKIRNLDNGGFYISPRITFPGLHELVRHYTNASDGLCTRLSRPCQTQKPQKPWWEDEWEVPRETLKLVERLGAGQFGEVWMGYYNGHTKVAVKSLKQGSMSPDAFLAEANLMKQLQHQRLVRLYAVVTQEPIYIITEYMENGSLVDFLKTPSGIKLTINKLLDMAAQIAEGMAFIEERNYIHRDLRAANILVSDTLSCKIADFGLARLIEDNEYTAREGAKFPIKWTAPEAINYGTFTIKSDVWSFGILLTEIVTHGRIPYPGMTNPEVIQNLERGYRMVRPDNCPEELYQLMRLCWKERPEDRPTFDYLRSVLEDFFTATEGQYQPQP

B1: GST-tagged C-terminus of TRPM8 (GST-M8C) (domain or fragment, rat, UniProt Q8R455 980-1104, looked up)
chain: GYTVGIVQENNDQVWKFQRYFLVQEYCNRLNIPFPFVVFAYFYMVVKKCFKCCCKEKNTESSACCFRNEDNETLAWEGVMKENYLVKINTKANDNAEEMRHRFRQLDTKLNDLKGLLKEIANKIK
For the molecule B1, the binding result is “binds”.
